From paper doi:10.1101/695155

Molecular target: p35 (UniProt Q15078)
Assay: co-IP

Chain of UniProt Q15078 (Q15078 whole entry): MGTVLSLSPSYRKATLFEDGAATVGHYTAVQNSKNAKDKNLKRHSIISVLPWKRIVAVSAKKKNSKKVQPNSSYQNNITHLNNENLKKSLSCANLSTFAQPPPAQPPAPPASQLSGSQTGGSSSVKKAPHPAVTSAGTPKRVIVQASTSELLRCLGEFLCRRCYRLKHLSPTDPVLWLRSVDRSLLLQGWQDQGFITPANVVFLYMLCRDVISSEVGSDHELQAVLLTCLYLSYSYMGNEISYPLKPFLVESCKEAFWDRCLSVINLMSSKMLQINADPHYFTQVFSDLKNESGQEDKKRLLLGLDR

cdk5 recovered by anti-p35 IP with nestin co-expressed, normalised to no nestin: 1.12
Substance: HA-CDK5-DN (D145N) (from UniProt Q00535 1-292) (enzyme)
